Target: T1, CytRN (CytR DNA-binding domain) (Escherichia coli, UniProt P0ACN7 1-66)
T1 sequence: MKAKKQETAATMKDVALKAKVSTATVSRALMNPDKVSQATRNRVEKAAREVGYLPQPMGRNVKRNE
Test: NMR

B1: udp half-site DNA (dsDNA)
DNA 1: ATTTATGCAACGCA
DNA 2: TGCGTTGCATAAAT
binding result: binds

— publication PMC10306299
